Measurements taken from US20260109770A1 (REMD BIOTHERAPEUTICS, published 2026).
Positions count from the first letter of the chain named.

B1: mouse antibody 46A5C4B1 (MAb 2) (antibody, V domains shown)
VH: EVQLVESGGGLVQPKGSLKLSCAASGFSFNAYAMNWVRQAPGKGLEWVARIRSKSNNYATYYADSVKDRFIISRDDSESMLYLQMNNLKTEDTAMYFCVRGGTYGSTSYFDYWGQGTTLTVSS
VL: DIVMTQAAPSVPVTPGESVSISCRSSKSLLHSNGNTYLYWFLQRPGQSPQLLIYRMSNLASGVPDRFSGSGSGTAFTLRISRVEAEDVGVYYCMQHLEYPFTFGGGTKLEIK
notes: Mouse monoclonal antibody from a hybridoma; also called A2
B2: mouse antibody 516D7D12 (MAb 10) (antibody, V domains shown)
VH: EVQLVESGGGLVQPKGSLKLSCAASGFSFNTYAMNWVRQAPGKGLEWVARIRTKSNNYATYYADSVKDRFTISRDDSESMLYLQMNNLKTEDTAMYYCVRGGSGLRYVRYFDVWGTGTTVTVSS
VL: B1 VL with A8T, D65E, T74S, I80V, G105S
B3: mouse antibody 506G6G5 (MAb 8) (antibody, V domains shown)
VH: B2 VH with T53S, L105I, R106S
VL: B1 VL with T74S, G105S
B4: mouse antibody 504E12D8D12 (MAb 18) (antibody, V domains shown)
VH: B2 VH with D64A, S79T, R106N
VL: B1 VL with P12F, T14I, T74S, G105S
B5: murine-human chimeric (human IgG1) antibody 41E1C2A5 (antibody, V domains shown)
VH: B1 VH with I71T, S79T, T107S
VL: DIVMTQAAPSVPVTPGESVSIPCRSSKSLLHSNGNTYLYWFLQRPGQSPQLLIYRMSNLASGVPDRFSGSGSGTAFTLRISRVEAEDVGVYYCMQHLEYPFTFGGGTKLQIRR
B6: mouse antibody 507B6B10 (MAb 14) (antibody, V domains shown)
VH: B2 VH with T53S, L105I
VL: B1 VL with L30Q, T36I, T74S, G105S
B7: mouse antibody 531A3E12H8 (MAb 17) (antibody, V domains shown)
VH: B2 VH with Y61F, D75H, L105I
VL: B1 VL with P12T, N58D, T74S, G105S
B8: mouse antibody 525F2F3F11 (MAb 11) (antibody, V domains shown)
VH: B2 VH with S79N
VL: B1 VL with A8T, D65E, T74S, I80V, G105S
B9: mouse antibody 526G1C12 (MAb 16) (antibody, V domains shown)
VH: B2 VH with N30K, K43E, S79T, R106N, T116P
VL: B1 VL with P12L, I21F, Y54F, T74S, G105S
B10: mouse antibody 529D10C10 (MAb 6) (antibody, V domains shown)
VH: B2 VH with K15R, T31A, N86I, L105I, R109K
VL: B1 VL with D65E, T74S, G105S
B11: mouse antibody 508C11A12 (MAb 5) (antibody, V domains shown)
VH: B2 VH with S79N, M80I, L105I, R106K
VL: B1 VL with D65E, T74S, G105S
B12: mouse antibody 531A6A3 (MAb 9) (antibody, V domains shown)
VH: B2 VH with N30K, S79T, R106N
VL: B1 VL with T74S, G105S
B13: mouse antibody 536H9D10 (MAb 7) (antibody, V domains shown)
VH: B2 VH with K15G, T31A, N86I, L105I, R109K
VL: B1 VL with D65E, T74S, G105S
B14: mouse antibody 80E4D1F11 (MAb 3) (antibody, V domains shown)
VH: B1 VH with A31T, D68A, I71T
VL: B1 VL
notes: Mouse monoclonal antibody from a hybridoma; also called A3
B15: mouse antibody 41E1C2A5 (MAb 1) (antibody, V domains shown)
VH: B1 VH with I71T, S79T, T107S
VL: B1 VL with S22P, E110Q, K112R
notes: Mouse monoclonal antibody from a hybridoma; also called A1
B16: mouse antibody 530H3G7D9 (MAb 12) (antibody, V domains shown)
VH: EVQLVESGGGLVQPKGSLKLSCAASGFSFNTYAMNWVRQAPGKGLDWVARIRSKSNNYATYYADSVKDRFTISRDDSESMLYLQMNNLKTEDTAMYFCVRQTYGSRDYAMDYWGQGTSVTVSS
VL: DVVMTQTPLSLPVSLGDQASISCRSSQSLVHSNGNTYLHWYLQKPGQSPKLLIYKVSNRFSGVPDRFSGSGSGTDFTLKISRVEAEDLGVYFCCQSTHVPPYTFGGGTKLEIK
B17: mouse antibody 509H4E10B3 (MAb 15) (antibody, V domains shown)
VH: B16 VH with K15R, T31A, D46E, Y58F, F97Y
VL: B16 VL with Q18R, K50R, C94S
B18: mouse antibody 531B9B1C9 (MAb 13) (antibody, V domains shown)
VH: B16 VH with T31A
VL: B16 VL
B19: mouse antibody 538H5G10 (MAb 19) (antibody, V domains shown)
VH: B16 VH with T31A, D46E, Y58F, F97Y
VL: B16 VL with Q18R, K50R, C94S, S96N
B20: mouse antibody 419C7B3B2 (MAb 4) (antibody, V domains shown)
VH: EVQLQQSGPELVKPGSSVKISCKASGYTFTDYNMDWVKQSHGKSLEWIGAINPNNGGTGYTQKFKGKATLTVDKSSSTAFMELRSLTSEDSAVYYCARRGVYMFAYWGQGTLVTVSA
VL: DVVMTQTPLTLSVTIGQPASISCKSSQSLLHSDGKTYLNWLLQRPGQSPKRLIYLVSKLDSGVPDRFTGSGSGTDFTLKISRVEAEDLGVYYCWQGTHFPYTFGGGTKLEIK
B21: murine-human chimeric (human IgG1) antibody 516D7D12 (antibody, V domains shown)
VH: B2 VH
VL: B5 VL with A8T, P22S, D65E, T74S, I80V, G105S, Q110E, R112K
notes: Chimeric antibody derived from murine antibody A10 and human IgG1
B22: murine-human chimeric (human IgG1) antibody 525F2F3F11 (antibody, V domains shown)
VH: B2 VH with S79N
VL: B5 VL with A8T, P22S, D65E, T74S, I80V, G105S, Q110E, R112K
notes: Chimeric antibody derived from murine antibody A11 and human IgG1
B23: murine-human chimeric (human IgG1) antibody 504E12D8D12 (antibody, V domains shown)
VH: B2 VH with D64A, S79T, R106N
VL: B5 VL with P12F, T14I, P22S, T74S, G105S, Q110E, R112K
notes: Chimeric antibody derived from murine antibody A18 and human IgG1; also called chimeric 504E12D8D12 mAb

Columns and labels:
[1] = biological target: T1, human C-C chemokine receptor type 8 (hCCR8) (human, UniProt P51685 1-355); test: cell-based or functional assay
T1 sequence (P51685 whole entry): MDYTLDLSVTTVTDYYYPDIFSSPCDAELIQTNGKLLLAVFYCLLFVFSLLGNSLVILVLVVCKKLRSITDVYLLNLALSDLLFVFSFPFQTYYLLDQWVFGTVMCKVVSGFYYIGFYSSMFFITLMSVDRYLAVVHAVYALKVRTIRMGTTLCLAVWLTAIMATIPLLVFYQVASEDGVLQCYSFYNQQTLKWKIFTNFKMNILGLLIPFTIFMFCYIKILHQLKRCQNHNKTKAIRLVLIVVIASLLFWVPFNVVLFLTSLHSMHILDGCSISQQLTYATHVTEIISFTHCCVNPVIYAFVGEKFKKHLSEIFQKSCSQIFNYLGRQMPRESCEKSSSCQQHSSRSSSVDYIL

human CCR4 (hCCR4) = biological target: T2, human CCR4 (hCCR4) (human, UniProt P51679 1-360); test: flow cytometry on hCCR4-expressing CHO-K1 cells against parental CHO-K1 cells
T2 construct: whole, on cells
T2 sequence (looked up): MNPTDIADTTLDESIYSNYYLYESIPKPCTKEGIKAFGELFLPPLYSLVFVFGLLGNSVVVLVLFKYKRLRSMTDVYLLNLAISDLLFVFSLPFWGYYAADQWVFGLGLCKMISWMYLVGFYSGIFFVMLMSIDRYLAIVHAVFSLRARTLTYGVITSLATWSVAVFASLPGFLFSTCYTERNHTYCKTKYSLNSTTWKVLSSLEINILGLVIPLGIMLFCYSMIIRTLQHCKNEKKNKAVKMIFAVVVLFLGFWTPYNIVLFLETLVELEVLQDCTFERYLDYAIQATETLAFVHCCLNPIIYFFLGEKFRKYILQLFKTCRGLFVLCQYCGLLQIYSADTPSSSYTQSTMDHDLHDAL
Experimental: The antibodies were further screened for binding to human CCR4 (hCCR4) by flow cytometry. The antibodies were incubated with CHO-K1 cells and hCCR4-expressing CHO-K1 cells for 60 minutes at 4° C. The cells were washed thoroughly with PBS buffer and were then incubated with FITC-conjugated goat anti-mouse IgG Fc antibody or anti-human IgG Fc antibody. Mean Fluorescence Intensity (MFI) of antibody binding on the cells were analyzed by flow cytometry (Table 7).

[2] = biological target: T1, human C-C chemokine receptor type 8 …; test: cell-based or functional assay; remark: listed apart in the source
[3] = biological target: T1, human C-C chemokine receptor type 8 …; test: cell-based or functional assay; remark: listed apart in the source

Binder | IC50 (nM), antagonist activity measured by β-arrestin assay [1] | binding result (human CCR4 (hCCR4)) | inhibition of β-arrestin production (CCR8 CHO-K1 β-arrestin bioassay, 2 nM hCCL1, subclone supernatant) [2] | EC50 of ADCC activity (column head prints IC50 (nM)); ADCC/NFAT-reporter-Jurkat bioassay [3]
B1 | 6.24 nM | no binding | ≥ 50% | 
B2 |  |  | ≥ 50% | 
B3 |  |  | ≥ 50% | 
B4 |  |  | ≥ 50% | 
B5 |  |  |  | 0.049 nM
B6 |  |  | ≥ 50% | 
B7 |  |  | ≥ 50% | 
B8 |  |  | ≥ 50% | 
B9 |  |  | ≥ 50% | 
B10 |  |  | ≥ 50% | 
B11 |  |  | ≥ 50% | 
B12 |  |  | ≥ 50% | 
B13 |  |  | ≥ 50% | 
B14 | 7.11 nM | no binding | ≥ 50% | 
B15 | 4.68 nM | no binding | ≥ 50% | 
B16 |  |  | ≥ 50% | 
B17 |  |  | ≥ 50% | 
B18 |  |  | ≥ 50% | 
B19 |  |  | ≥ 50% | 
B20 |  |  | ≥ 50% | 
B21 | 1.51 nM | no binding |  | 
B22 | 1.52 nM | no binding |  | 
B23 | 0.867 nM | no binding |  | 0.015 nM
